Laboratory results from patent US20150344570A1 (published 2015).

T1: FcγRIIb (human, UniProt P31994 43-217)
T1 construct: extracellular domain; also called FcgRIIb; CD32B
T1 sequence (looked up): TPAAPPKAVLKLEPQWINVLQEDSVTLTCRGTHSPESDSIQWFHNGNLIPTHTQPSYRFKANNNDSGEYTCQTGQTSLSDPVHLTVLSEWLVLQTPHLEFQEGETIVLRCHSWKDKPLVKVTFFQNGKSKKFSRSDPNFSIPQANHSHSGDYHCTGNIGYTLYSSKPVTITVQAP

B1: GpH7-A5/GpH7-B3 variant E333_11K/GpL16-k0 (antibody, human IgG1, kappa)
heavy 1: not shown
heavy 2: not shown
light: DIVMTQSPLSLPVTPGEPASISCQASESLVHSNRNTYLHWYLQKPGQSPQLLIYKVSNRFSGVPDRFSGSGSGTDFTLKISRVEAEDVGVYYCSQNTHVPPTFGQGTKVEIERTVAAPSVFIFPPSDEQLKSGTASVVCLLNNFYPREAKVQWKVDNALQSGNSQESVTEQDSKDSTYSLSSTLTLSKADYEKHKVYACEVTHQGLSSPVTKSFNRGEC
notes: He Ab; mutation in the GpH7-B3 chain only; also called He Ab
B2: GpH7-A5/GpH7-B3 variant L328_01G/GpL16-k0 (antibody, human IgG1, kappa)
heavy 1: not shown
heavy 2: not shown
light: B1 light
notes: as for B1
B3: GpH7-A5/GpH7-B3 variant I336_15Y/GpL16-k0 (antibody, human IgG1, kappa)
heavy 1: not shown
heavy 2: not shown
light: B1 light
notes: as for B1
B4: GpH7-A5/GpH7-B3 variant E333_16H/GpL16-k0 (antibody, human IgG1, kappa)
heavy 1: not shown
heavy 2: not shown
light: B1 light
notes: as for B1
B5: GpH7-A5/GpH7-B3 variant I336_01G/GpL16-k0 (antibody, human IgG1, kappa)
heavy 1: not shown
heavy 2: not shown
light: B1 light
notes: as for B1
B6: GpH7-A5/GpH7-B3 variant P329_19Q/GpL16-k0 (antibody, human IgG1, kappa)
heavy 1: not shown
heavy 2: not shown
light: B1 light
notes: as for B1
B7: GpH7-A5/GpH7-B3 variant I336_13S/GpL16-k0 (antibody, human IgG1, kappa)
heavy 1: not shown
heavy 2: not shown
light: B1 light
notes: as for B1
B8: GpH7-A5/GpH7-B3 variant P329_13S/GpL16-k0 (antibody, human IgG1, kappa)
heavy 1: not shown
heavy 2: not shown
light: B1 light
notes: as for B1
B9: GpH7-A5/GpH7-B3 variant P329_18N/GpL16-k0 (antibody, human IgG1, kappa)
heavy 1: not shown
heavy 2: not shown
light: B1 light
notes: as for B1
B10: GpH7-A5/GpH7-B3 variant P329_10E/GpL16-k0 (antibody, human IgG1, kappa)
heavy 1: not shown
heavy 2: not shown
light: B1 light
notes: as for B1
B11: GpH7-A5/GpH7-B3 variant P331_01G/GpL16-k0 (antibody, human IgG1, kappa)
heavy 1: not shown
heavy 2: not shown
light: B1 light
notes: as for B1
B12: GpH7-A5/GpH7-B3 variant L328_18N/GpL16-k0 (antibody, human IgG1, kappa)
heavy 1: not shown
heavy 2: not shown
light: B1 light
notes: as for B1
B13: GpH7-A5/GpH7-B3 variant P329_08L/GpL16-k0 (antibody, human IgG1, kappa)
heavy 1: not shown
heavy 2: not shown
light: B1 light
notes: as for B1
B14: GpH7-A5/GpH7-B3 variant P329_16H/GpL16-k0 (antibody, human IgG1, kappa)
heavy 1: not shown
heavy 2: not shown
light: B1 light
notes: as for B1
B15: GpH7-A5/GpH7-B3 variant P329_04F/GpL16-k0 (antibody, human IgG1, kappa)
heavy 1: not shown
heavy 2: not shown
light: B1 light
notes: as for B1
B16: GpH7-A5/GpH7-B3 variant E333_12R/GpL16-k0 (antibody, human IgG1, kappa)
heavy 1: not shown
heavy 2: not shown
light: B1 light
notes: as for B1
B17: GpH7-A5/GpH7-B3 variant I336_20W/GpL16-k0 (antibody, human IgG1, kappa)
heavy 1: not shown
heavy 2: not shown
light: B1 light
notes: as for B1
B18: GpH7-A5/GpH7-B3 variant I332_12R/GpL16-k0 (antibody, human IgG1, kappa)
heavy 1: not shown
heavy 2: not shown
light: B1 light
notes: as for B1
B19: GpH7-A5/GpH7-B3 variant P329_14T/GpL16-k0 (antibody, human IgG1, kappa)
heavy 1: not shown
heavy 2: not shown
light: B1 light
notes: as for B1
B20: GpH7-A5/GpH7-B3 variant I336_19Q/GpL16-k0 (antibody, human IgG1, kappa)
heavy 1: not shown
heavy 2: not shown
light: B1 light
notes: as for B1
B21: GpH7-A5/GpH7-B3 variant P329_11K/GpL16-k0 (antibody, human IgG1, kappa)
heavy 1: not shown
heavy 2: not shown
light: B1 light
notes: as for B1
B22: GpH7-A5/GpH7-B3 variant P329_12R/GpL16-k0 (antibody, human IgG1, kappa)
heavy 1: not shown
heavy 2: not shown
light: B1 light
notes: as for B1
B23: GpH7-A5/GpH7-B3 variant E333_13S/GpL16-k0 (antibody, human IgG1, kappa)
heavy 1: not shown
heavy 2: not shown
light: B1 light
notes: as for B1
B24: GpH7-A5/GpH7-B3 variant P329_06M/GpL16-k0 (antibody, human IgG1, kappa)
heavy 1: not shown
heavy 2: not shown
light: B1 light
notes: as for B1
B25: GpH7-A5/GpH7-B3 variant I336_02A/GpL16-k0 (antibody, human IgG1, kappa)
heavy 1: not shown
heavy 2: not shown
light: B1 light
notes: as for B1
B26: GpH7-A5/GpH7-B3 variant P329_02A/GpL16-k0 (antibody, human IgG1, kappa)
heavy 1: not shown
heavy 2: not shown
light: B1 light
notes: as for B1
B27: GpH7-A5/GpH7-B3 variant P329_20W/GpL16-k0 (antibody, human IgG1, kappa)
heavy 1: not shown
heavy 2: not shown
light: B1 light
notes: as for B1
B28: GpH7-A5/GpH7-B3 variant L328_05P/GpL16-k0 (antibody, human IgG1, kappa)
heavy 1: not shown
heavy 2: not shown
light: B1 light
notes: as for B1
B29: GpH7-A5/GpH7-B3 variant E333_18N/GpL16-k0 (antibody, human IgG1, kappa)
heavy 1: not shown
heavy 2: not shown
light: B1 light
notes: as for B1
B30: GpH7-A5/GpH7-B3 variant P329_09D/GpL16-k0 (antibody, human IgG1, kappa)
heavy 1: not shown
heavy 2: not shown
light: B1 light
notes: as for B1
B31: GpH7-A5/GpH7-B3 variant P329_03V/GpL16-k0 (antibody, human IgG1, kappa)
heavy 1: not shown
heavy 2: not shown
light: B1 light
notes: as for B1
B32: GpH7-A5/GpH7-B3 variant P329_07I/GpL16-k0 (antibody, human IgG1, kappa)
heavy 1: not shown
heavy 2: not shown
light: B1 light
notes: as for B1
B33: GpH7-A5/GpH7-B3 variant P329_15Y/GpL16-k0 (antibody, human IgG1, kappa)
heavy 1: not shown
heavy 2: not shown
light: B1 light
notes: as for B1

The binders below were run against T2, FcγRIa (human, UniProt P12314 16-292) (assay: ratio of He/Con_1a to He/Con_2b (FcγRIa over FcγRIIb), SPR).
T2 construct: extracellular domain; also called FcgRI; CD64
Procedure: (§1) The heterodimerized antibodies He Abs in which one of the H chains was introduced with an alteration were assayed for their binding activities to each activating FcγR and inhibitory FcγR according to the method described in Example 4. […] The activating FcγRs in FIGS. 26, 27, 28, and 29 are FcγRIa, FcγRIIa (R), FcγRIIa (H), and FcγRIIIa, respectively.
(§2) Analysis of interaction between objective antibody and the FcγR was carried out using Biacore T100 (GE Healthcare). HBS-EP+ (GE Healthcare) was used as the running buffer, and the measurement temperature was set to 25° C. Chips produced by immobilizing the antigen peptide by the amine coupling method to a Series S Sencor Chip CM5 (GE Healthcare), or alternatively, chips produced by allowing preliminarily biotinylated antigen peptides to interact with and immobilize onto a Series S Sensor Chip SA (certified) (GE Healthcare) were used. Antibodies of interest were captured onto an antigen peptide-immobilized chip, and allowed to interact to each FcγR diluted with running buffer. To regenerate and repeatedly use the chip, the antibodies captured on the chip were washed off by reacting 10 mM glycine-HCl, pH 1.5.

T2 sequence (P12314 16-292): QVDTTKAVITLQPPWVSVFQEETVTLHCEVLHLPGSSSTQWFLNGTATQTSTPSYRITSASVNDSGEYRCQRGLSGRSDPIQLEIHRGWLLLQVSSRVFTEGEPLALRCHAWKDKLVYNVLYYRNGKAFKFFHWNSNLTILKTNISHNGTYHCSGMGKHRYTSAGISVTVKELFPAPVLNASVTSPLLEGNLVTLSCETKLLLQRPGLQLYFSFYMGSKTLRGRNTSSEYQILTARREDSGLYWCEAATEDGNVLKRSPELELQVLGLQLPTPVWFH

Binder | He_1a/2b (Ia/IIb)
B1 | 1.27
B2 | 1.21
B3 | 1.51
B4 | 1.21
B5 | 1.21
B6 | 2.31
B7 | 1.22
B8 | 2.27
B9 | 2.29
B10 | 1.5
B11 | 1.88
B12 | 1.22
B13 | 2.95
B14 | 2.45
B15 | 2.88
B16 | 1.27
B17 | 4.28

Binder | He_1a/2b (Ia/IIb)
B18 | 2.05
B19 | 2.37
B20 | 1.78
B21 | 4.17
B22 | 4.22
B23 | 1.26
B24 | 2.94
B25 | 1.25
B26 | 2.52
B27 | 2.15
B28 | 1.42
B29 | 1.27
B30 | 1.45
B31 | 2.53
B32 | 2.72
B33 | 2.09

What follows are binders tested against T1, FcγRIIb (assay: SPR (Biacore), captured antibody, soluble FcγR; relative to GpH7-A5/GpH7-B3/GpL16-k0 = 100).
Procedure: as §1, §2

Binder | He/Con_2b
B1 | 80.6 % of control
B2 | 80.2 % of control
B3 | 68.2 % of control
B4 | 83.3 % of control
B5 | 90.1 % of control
B6 | 30.7 % of control
B7 | 83.7 % of control
B8 | 41 % of control
B9 | 40.4 % of control
B10 | 52.7 % of control
B11 | 45.4 % of control
B12 | 80.8 % of control
B13 | 29.1 % of control
B14 | 39.1 % of control
B15 | 32.2 % of control
B16 | 80.4 % of control
B17 | 20.3 % of control

Binder | He/Con_2b
B18 | 48.9 % of control
B19 | 37.9 % of control
B20 | 58.2 % of control
B21 | 16.9 % of control
B22 | 17.6 % of control
B23 | 81.8 % of control
B24 | 29.1 % of control
B25 | 84.9 % of control
B26 | 40.5 % of control
B27 | 45.1 % of control
B28 | 65.1 % of control
B29 | 76.1 % of control
B30 | 53.5 % of control
B31 | 38.5 % of control
B32 | 34.6 % of control
B33 | 45.7 % of control

What follows are binders tested against T2, FcγRIa in the same assay as above.
Procedure: as §1, §2

Binder | He/Con_1a
B1 | 102 % of control
B2 | 97.2 % of control
B3 | 103 % of control
B4 | 101 % of control
B5 | 109 % of control
B6 | 70.7 % of control
B7 | 102 % of control
B8 | 93.3 % of control
B9 | 92.4 % of control
B10 | 78.8 % of control
B11 | 85.3 % of control
B12 | 98.7 % of control
B13 | 85.7 % of control
B14 | 95.6 % of control
B15 | 92.7 % of control
B16 | 102 % of control
B17 | 86.7 % of control

Binder | He/Con_1a
B18 | 100 % of control
B19 | 89.7 % of control
B20 | 104 % of control
B21 | 70.4 % of control
B22 | 74.3 % of control
B23 | 103 % of control
B24 | 85.3 % of control
B25 | 106 % of control
B26 | 102 % of control
B27 | 96.9 % of control
B28 | 92.2 % of control
B29 | 96.6 % of control
B30 | 77.6 % of control
B31 | 97.4 % of control
B32 | 94.1 % of control
B33 | 95.6 % of control
